doi:10.1101/2022.02.18.481027, “Structural insights into the assembly and activation of IL-27 signalling complex” (bioRxiv, 2022)

B1: Murine IL-27Rα ectodomain (amino acids 28-224), N-terminally biotinylated (receptor, UniProt O70394 28-224, looked up)
chain: HGSPGPLQCYSVGPLGILNCSWEPLGDLETPPVLYHQSQKYHPNRVWEVKVPSKQSWVTIPREQFTMADKLLIWGTQKGRPLWSSVSVNLETQMKPDTPQIFSQVDISEEATLEATVQWAPPVWPPQKVLICQFRYKECQAETWTRLEPQLKTDGLTPVEMQNLEPGTCYQVSGRCQVENGYPWGEWSSPLSFQTPF
modifications: N-terminal biotin (EZ-Link Sulfo-NHS-SS-Biotin, at pH 6.5)
notes: murine IL-27Rα, amino acids 28-224; also called biotinylated IL-27Rα; source: baculovirus, Trichoplusia ni (High Five) cells, secreted, purified (Ni-NTA, SEC), biotinylated in vitro
B2: Murine IL-27, linker-connected single-chain variant (p28+EBI3) (ligand)
chain 1: YTETALVALSQPRVQCHASRYPVAVDCSWTPLQAPNSTRSTSFIATYRLGVATQQQSQPCLQRSPQASRCTIPDVHLFSTVPYMLNVTAVHPGGASSSLLAFVAERIIKPDPPEGVRLRTAGQRLQVLWHPPASWPFPDIFSLKYRLRYRRRGASHFRQVGPIEATTFTLRNSKPHAKYCIQVSAQDLTDYGKPSDWSLPGQVESAPHKP
chain 2: FPTDPLSLQELRREFTVSLYLARKLLSEVQGYVHSFAESRLPGVNLDLLPLGYHLPNVSLTFQAWHHLSDSERLCFLATTLRPFPAMLGGLGTQGTWTSSEREQLWAMRLDLRDLHRHLRFQVLAAGFKCSKEEEDKEEEEEEEEEEKKLPLGALGGPNQVSSQVSWPQLLYTYQLLHSLELVLSRAVRDLLLLSLPRRPGSAWDS

Experiments:
[1] = molecular target: T1, p28 (IL-27p28), recombinant, alone (murine, UniProt Q8K3I6 29-234); assay: SPR; biotinylated IL-27Rα or GP130 immobilised on a streptavidin chip (Series S Sensor SA), p28 flowed over; equilibrium analysis; 10 mM HEPES, 150 mM NaCl, 0.05% TWEEN-20, 0.5% BSA; Biacore T100; conditions: both partners purified
T1 construct: IL-27p28 (p28) without EBI3; the construct is not described; The methods of expression name no p28 construct; source: recombinantly produced
T1 sequence (looked up): B2 chain 2

[2] = molecular target: T2, Murine IL-27Rα ectodomain (amino acids 28-224), N-terminally biotinylated (murine, UniProt O70394 28-224, N-terminal biotin (EZ-Link Sulfo-NHS-SS-Biotin, at pH 6.5)); assay: SPR
T2 chain: B1 chain

[3] = molecular target: T3, Murine GP130 ectodomain with C-terminal biotin acceptor peptide, biotinylated (murine, UniProt Q00560 23-319, biotin on the biotin acceptor peptide (BirA ligase)); assay: SPR
T3 chain: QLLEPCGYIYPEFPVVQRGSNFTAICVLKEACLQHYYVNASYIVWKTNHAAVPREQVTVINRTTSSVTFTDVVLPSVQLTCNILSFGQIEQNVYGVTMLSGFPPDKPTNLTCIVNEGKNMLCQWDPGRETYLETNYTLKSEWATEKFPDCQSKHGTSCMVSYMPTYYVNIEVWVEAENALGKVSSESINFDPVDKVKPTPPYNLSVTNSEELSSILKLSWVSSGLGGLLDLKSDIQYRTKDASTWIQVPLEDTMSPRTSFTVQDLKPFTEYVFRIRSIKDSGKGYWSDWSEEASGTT

Row | Binder | Kd [1] | koff [2] | koff [3]
1 | B1 | 2.8 µM |  | 
2 | B2 |  | 0.001 s⁻¹ | 0.021 s⁻¹
